In publication PMC7380666:

Assay: purification, SEC and SDS-PAGE
Conditions: glycan lost; control: wild-type mCD98hcED

B1: mCD98hcED (murine CD98hc extracellular domain): N385D/T401A (protein)
parent chain: MSQDTEVDMKDVELNELEPEKQPMNAADGAAAGEKNGLVKIKVAEDETEAGVKFTGLSKEELLKVAGSPGWVRTRWALLLLFWLGWLGMLAGAVVIIVRAPRCRELPVQRWWHKGALYRIGDLQAFVGRDAGGIAGLKSHLEYLSTLKVKGLVLGPIHKNQKDEINETDLKQINPTLGSQEDFKDLLQSAKKKSIHIILDLTPNYQGQNAWFLPAQADIVATKMKEALSSWLQDGVDGFQFRDVGKLMNAPLYLAEWQNITKNLSEDRLLIAGTESSDLQQIVNILESTSDLLLTSSYLSNSTFTGERTESLVTRFLNATGSQWCSWSVSQAGLLADFIPDHLLRLYQLLLFTLPGTPVFSYGDELGLQGALPGQPAKAPLMPWNESSIFHIPRPVSLNMTVKGQNEDPGSLLTQFRRLSDLRGKERSLLHGDFHALSSSPDLFSYIRHWDQNERYLVVLNFRDSGRSARLGASNLPAGISLPASAKLLLSTDSARQSREEDTSLKLENLSLNPYEGLLLQFPFVA
- stability_or_folding: no change
